How the values were obtained:
[1] = biological target: T3 SAMase E68Q/Q94A, C-terminally His6-tagged (bacteriophage T3) (UniProt P07693); experiment: mass photometry
[2] = biological target: T3 SAMase E68Q/Q94A, C-terminally His6-tagged (bacteriophage T3) (UniProt P07693); experiment: SEC-SAXS
[3] = biological target: T3 SAMase, wild type, C-terminally His6-tagged (bacteriophage T3) (UniProt P07693); experiment: SEC-SAXS
[4] = biological target: T3 SAMase, wild type, C-terminally His6-tagged (bacteriophage T3) (UniProt P07693); experiment: cryo-EM structure
cryo-EM structure = biological target: the molecule itself; experiment: cryo-EM structure

B1: MetK, SAM synthase (methionine adenosyltransferase) of E. coli, endogenous (enzyme, UniProt P0A817 1-384, looked up)
chain: MAKHLFTSESVSEGHPDKIADQISDAVLDAILEQDPKARVACETYVKTGMVLVGGEITTSAWVDIEEITRNTVREIGYVHSDMGFDANSCAVLSAIGKQSPDINQGVDRADPLEQGAGDQGLMFGYATNETDVLMPAPITYAHRLVQRQAEVRKNGTLPWLRPDAKSQVTFQYDDGKIVGIDAVVLSTQHSEEIDQKSLQEAVMEEIIKPILPAEWLTSATKFFINPTGRFVIGGPMGDCGLTGRKIIVDTYGGMARHGGGAFSGKDPSKVDRSAAYAARYVAKNIVAAGLADRCEIQVSYAIGVAEPTSIMVETFGTEKVPSEQLTLLVREFFDLRPYGLIQMLDLLHPIYKETAAYGHFGREHFPWEKTDKAQLLRDAAGLK
**Q.** For B1, which stoichiometry N (SAMase per MetK subunit (4:4)) [1] is on record?
**A.** Its stoichiometry N (SAMase per MetK subunit (4:4)) is 1.

**Q.** And the stoichiometry N (SAMase per MetK subunit (4:4)) [2]?
**A.** Its stoichiometry N (SAMase per MetK subunit (4:4)) is 1.

**Q.** What about the stoichiometry N (SAMase per MetK subunit (4:4)) [3] of the same binder?
**A.** The stoichiometry N (SAMase per MetK subunit (4:4)) was 1.

**Q.** What about the stoichiometry N (SAMase per MetK subunit (4:4)) [4] of the same binder?
**A.** Its stoichiometry N (SAMase per MetK subunit (4:4)) is 1.

**Q.** And the “stoichiometry N” value (cryo-EM structure)?
**A.** Its value is 4.
